Drawing on PMC4889325, this text covers Kd and stoichiometry N (receptors per Hb tetramer) for 1 substance.

The assay concerns the target human haemoglobin (human). Description: ITC; MicroCal iTC200; 250 μM TcHpHbR titrated into 18 μM Hb, 20 injections of 2 μl; 20 mM HEPES pH 7.5, 150 mM NaCl, 25°C.

In the case of “T. congolense haptoglobin-haemoglobin receptor (TcHpHbR), recombinant, as used in gel filtration and ITC”, the Kd (commonly a measure of binding affinity in units of concentration) is 3 nM and the stoichiometry N (receptors per Hb tetramer) worked out at 2.
